Results: patent US20240131155A1, “T CELLS FOR USE IN THERAPY” (Erasmus University Medical Center Rotterdam, priority 2021, published 2024)
Peptide text beside a SMILES is read from it.

B1: Epitope 16 peptide AELTPELLKI (10-mer derived from immunopeptidome) (peptide)
peptide: AELTPELLKI
notes: Eluted from ROPN1B-overexpressing MDA-MB231 cells; mapped in silico to HLA-B40:01

Assays:
[1] = test system: ROPN1 or ROPN1B over-expressing MDA-MB231 tumor cells; assay: IFNg production of TCR T cells co-cultured with ROPN1 or ROPN1B over-expressing tumor cells (endogenously processed epitope); type: cell-based, human; settings: Table 4; responding TCRs / TCRs tested, T cells transduced with TCR specific for the epitope
Description: In a first series of in vitro tests, TCR-transduced T cells (6×10^4/well in a 96-well plate) were co-cultured with ROPN1 or ROPN1B over-expressing MDA-MB231 tumor cells (2×10^4/well) in a total volume of 200 μl of T cell medium for 24 h at 37° C. The ROPN1 or ROPN1B over-expressing tumor cells were generated as described under ‘generation and culture of cell lines and T cells’ (see above), and tumor cells were pre-treated 48 h with IFN-Y before co-culture with T cells. […] T cells that fulfilled these criteria (examples in FIG. 10A) were assessed for their sensitivity towards their cognate epitope. […] EC50 values were calculated using GraphPad Prism 5 software.

HLA-A2 = biological target: T1, HLA-A2 (Homo sapiens, UniProt P04439, D140Y/D185E/D98H/E176V/E277Q/G131W/G231S/I119V/I121R/I166T/I218V/L300P/L318F/N151K/N90K/P208A/P217A/Q86G/Q94H/R138H/R169H/T345S); assay: HLA-A2 stabilization assay using T2 cells; type: binding; settings: Table 4 (Examples 1 and 2); EC50 of peptide titration on T2 cells; read-out: Affinity for HLA.A2.01
T1 construct: The HLA-A2 stabilization assay was performed using T2 cells; endogenous in cells; host or cells: T2 cells (LCLxT lymphoblastoid hybrid cell line 0.1743CEM.T2)

CD8+ T cells [2] = assay: Enrichment of epitope-specific CD8 T cells from healthy donors, epitope-specific IFNg production (ELISA); type: cell-based, human; settings: Table 4; positive co-cultures / co-cultures tested
Description: (§1) Enrichment of epitope-specific CD8 T cells was performed according to the protocol described by Butler et al., Clin Cancer Res.;13(6):1857-1867 (2007), doi:10.1158/1078-0432, but included the following amendments. CD8+ T lymphocytes were collected from PBMCs by magnetic-activated cell sorting (MACS) according to the CD8 isolation kit (Miltenyi Biotec). CD8+ T cells with >95% purity were subsequently cultured in T cell medium supplemented with IL-2 (36 IU/mL; but no gentamycin) for 1 day, after which expansion cycles started. K562ABC cells (kindly provided by prof. Bruce Levine, University of Pennsylvania, PA) were loaded with 10 μg/ml ROPN1 and/or ROPN1B peptide and incubated for 5 h at RT in serum-free medium, after which cells were washed and fixed with 0,1% paraformaldehyde. After washing, K562ABC cells were suspended at 0.1×10^6/mL and co-cultured with T cells in a 1:20 ratio. IL-2 (36 IU/mL) and IL-15 ([…]) were added at days 1 and 3 days after start of co-culture, and after 6 days, T cells were counted, suspended at 2×10^6/mL and rested for 1 day, after which the next cycle commenced (this schedule continued up to 4 or 5 cycles). Following 4 and 5 cycles, T cells were stained with pMHC multimers (HLA*0201/MLN, Immudex, Copenhagen, Denmark). pMHC-PE were pre-incubated at RT for 10 min followed by incubation with 7AAD, anti-CD3-FITC and anti-CD8-APC for 20 min. Cells were fixed with 1% paraformaldehyde and TCR expression was measured with flow cytometry and analyzed using FlowJoX software. FIG. 4A schematically depicts the procedure to enrich epitope-specific T cells, and obtainthe corresponding TCR genes.
Enriched T cells were tested for ROPN1 and/or ROPN1B epitope-specific IFNY production. To this end, T2 cells (4×10^6/mL) were loaded with peptide (20 ng/mL) for 30 min. T cells (2×10^5) were cultured in a 1:1 ratio with T2 cells in a round bottom 96-wells plate, and the next day supernatant was collected and IFN-γ production was measured with an Enzyme-linked immunosorbent assay (ELISA, Invitrogen) according to manufacturer's protocol (FIG. 4B). T2 cells without peptide were included as a negative control; and staphylococcal enterotoxin B (0.1 μg, Sigma) was used as a positive control.
Enrichment of epitope-specific T cells was performed by co-culturing naïve T cells with CD11c-positive cells that were loaded with peptide. PBMCs were passed through a cell strainer (70 μm) and used for the isolation of naïve T cells and CD11c cells. To isolate CD11c-positive cells (typically dendritic cells, DC), PBMCs were stained for 10 mM at 4° C. with Fc block (10 μL/10^7 PBMCs, BD Pharmingen, Vianen, the Netherlands), after which cells were stained with CD11c-PE antibody (10 μL/10^7 PBMCs, BD Pharmingen) for 30 mM at 4° C., washed, and incubated with PE beads (10 μL/10^7 PBMCs, Miltenyi Biotech, Bergisch Gladbach, Germany) for another […] at 4° C. After washing, cells were dissolved in magnetic-activated cell sorting (MACS) buffer and passed through a MACS LS column (Miltenyi Biotec) to positively select CD11c cells. After selection, CD11c cells were irradiated with 30 Gy, and cultured overnight in a 24-wells plate (1×10^6/mL) in RPMI medium supplemented with 1% human serum (Sanquin), 1% antibiotics, […] L-glutamine, a DC maturation cocktail (a mixture of GM-CSF (10 ng/mL, ImmunoTools, Germany), IL-4 (10 ng/mL, ImmunoTools), LPS (100 ng/mL, Invitrogen, Goteborg, Sweden) and IFNY (10 ng/mL, Preprotech, London, United Kingdom)), as well as peptide (10 pg/mL). Naïve T cells were isolated with use of the Naïve T Cell isolation kit (Miltenyi Biotec) according to the manufacturer's protocol, and suspended in RPMI medium supplemented with 5% human serum (Sanquin), 1% antibiotics, […] L-glutamine and IL-7 (5 ng/mL, BD Pharmingen). The run-through of the naïve T cell selection was frozen down and used for re-stimulation of epitope-specific T cells. […]

CD8+ T cells [3] = assay: peptide:MHC multimer/tetramer staining of enriched T cells (flow cytometry); type: cell-based, human; settings: Table 4; enriched T cells after enrichment cycles
Description: as §1
Following enrichment, T cells were tested for ROPN1 and/or ROPN1B epitope-specific IFNY production. To this end, T2 cells (1×10^6/mL) were loaded with peptide (20 ng/mL) for 30 min, after which T cells (1×10^5) were cultured in a 1:1 ratio with T2 cells in a round bottom 96-wells plate for 18 h. Supernatant was collected and IFN-γ production was measured with an Enzyme-linked immunosorbent assay (ELISA, BioLegend) according to the manufacturer's protocol (FIG. 9A). T2 cells loaded with an irrelevant peptide were included as a negative control. T cell IFNg production was considered epitope-specific in case levels exceeded 200 pg/ml, and levels were minimally twice as high as for irrelevant peptide (see for full listing of criteria, FIG. 8). T cells that fulfilled these criteria were stained with peptide:MHC (pMHC) tetramers to determine the frequency of epitope-specific T cells. Empty Loadable HLA Tetramers (5 μL, Tetramer shop, Kongens Lyngby, Denmark) were incubated with 0.5 μL peptide (200 μM) for 30 min on ice. Complexes of pMHC were centrifuged (3300 g, 5 min) and incubated with 0.1×10^6 T cells for 15 min at 37° C. in the dark. Next, an antibody cocktail containing CD3-FITC (1:30, BD) and CD8-APC (1:300, eBiosciences) was added and incubated for an additional 30 min at 4° C. in the dark. Finally, T cells were washed twice and fixed with 1% paraformaldehyde (PFA), after which events were acquired with FACSCelesta (BD) and analyzed using FlowJoX software.

[4] = biological target: T2, HLA-A2 (HLA-A2:01) on T2 cells (human); assay: HLA-A2 stabilization assay on T2 cells, peptide titration; amplitude relative to that of reference peptide YLE [panel D]
T2 construct: detected with anti-HLA-A2 mAb BB7.2

[5] = biological target: T2, HLA-A2 (HLA-A2:01) on T2 cells; assay: HLA-A2 stabilization assay on T2 cells, peptide titration, flow cytometry with anti-HLA-A2 BB7.2; column Affinity for HLA A2:01 (M)
[6] = biological target: T2, HLA-A2 (HLA-A2:01) on T2 cells; assay: HLA-A2 stabilization assay on T2 cells (anti-HLA-A2-PE, flow cytometry), single peptide concentration 25 ug/mL [panel E]
[7] = biological target: T2, HLA-A2 (HLA-A2:01) on T2 cells; assay: HLA-A2 stabilization assay on T2 cells, peptide titration; amplitude = highest data point corrected for baseline [panel E]
[8] = biological target: T2, HLA-A2 (HLA-A2:01) on T2 cells; assay: HLA-A2 stabilization assay on T2 cells, peptide titration (Example 2, repeated); column Affinity for HLA.A2.01 (M)
[9] = biological target: T2, HLA-A2 (HLA-A2:01) on T2 cells; assay: HLA-A2 stabilization assay on T2 cells (anti-HLA-A2-PE, flow cytometry), single peptide concentration [panel D]
[10] = biological target: T2, HLA-A2 (HLA-A2:01) on T2 cells; assay: HLA-A2 stabilization assay on T2 cells (anti-HLA-A2-PE, flow cytometry), single peptide concentration [panel B; D00018 Figure 7 continued, panel D]
[11] = biological target: T2, HLA-A2 (HLA-A2:01) on T2 cells; assay: HLA-A2 stabilization assay on T2 cells, peptide titration (Example 2); column Affinity for HLA.A2.01 (M)
[12] = biological target: T2, HLA-A2 (HLA-A2:01) on T2 cells; assay: HLA-A2 stabilization assay on T2 cells, peptide titration; EC50 calculated with GraphPad [panel D]

| Molecule | Amplitude [4] | EC50 [5] | Minimum stability [6] | Amplitude [7] | EC50 [8] | Minimum stability [9] | further results |
| --- | --- | --- | --- | --- | --- | --- | --- |
| CC[C@H](C)[C@H](NC(=O)[C@H](CC(C)C)NC(=O)CNC(=O)[C@H](CC(=O)O)NC(=O)[C@@H]1CCCN1C(=O)CNC(=O)[C@@H](NC(=O)[C@@H](NC(=O)[C@@H](N)CCC(=O)O)C(C)C)[C@@H](C)CC)C(=O)N[C@H](C(=O)N[C@H](C(=O)O)C(C)C)[C@@H](C)O (H-EVIGPDGLITV-OH; N-terminus and C-terminus assumed) |  |  |  |  |  |  | T cell responses observed (IFNg) against endogenously presented epitope [1]: 1/7 responses; EC50 (HLA-A2): 0.655 µM; T cell responses observed (IFNg) against epitope (CD8+ T cells [2]): 2/2 co-cultures; pMHC staining % pMHC+ CD8+ in CD3+ (CD8+ T cells [3]): 8.25% |
| KMLKEFAKA (Synthetic peptide) [Epitope 9 peptide KMLKEFAKA of ROPN1 and ROPN1B] | 0.842 relative to YLE | 91.2 µM | 1.19 fold change over baseline | 2660 geometric mean normalized to baseline | 38.2 µM | 1.2 fold change over baseline |  |
| B1 |  |  | 1.17 fold change over baseline |  |  | 1.08 fold change over baseline | binding result [10]: no binding |
| AQMWKVVNL (Synthetic peptide) [Epitope 8 peptide AQMWKVVNL of ROPN1 and ROPN1B] | 0.924 relative to YLE | 11.4 µM | 1.29 fold change over baseline | 3480 geometric mean normalized to baseline | 10.5 µM | 1.4 fold change over baseline |  |
| EVIGPDGLITV (Synthetic peptide) [Epitope 11 (EVI) peptide EVIGPDGLITV of ROPN1B] | 1.12 relative to YLE |  |  |  |  | 1.57 fold change over baseline | EC50 [11]: 0.655 µM |
| GVTITKTLK (ROPN1A and ROPN1B, eluted) | 0.489 relative to YLE |  |  |  |  | 1.18 fold change over baseline | EC50 [12]: 0.57 µM |
| FLYTYIAKV (Synthetic peptide) [Epitope 4 (FLY-A) peptide FLYTYIAKV of ROPN1] | 0.888 relative to YLE | 10.9 µM | 1.5 fold change over baseline | 2710 geometric mean normalized to baseline | 8.11 µM | 1.63 fold change over baseline |  |
| FLYTYIAEV (Synthetic peptide) [Epitope 10 (FLY-B) peptide FLYTYIAEV of ROPN1B] | 0.593 relative to YLE |  |  |  |  | 1.42 fold change over baseline | EC50 [11]: 21.1 µM |
| FQFLYTYIA (Synthetic peptide) [Epitope 6 peptide FQFLYTYIA of ROPN1 and ROPN1B] | 0.739 relative to YLE | 3.28 µM | 1.32 fold change over baseline | 2380 geometric mean normalized to baseline | 3.43 µM | 1.14 fold change over baseline |  |
| ALACSALGV (Synthetic peptide) [Epitope 7 peptide ALACSALGV of ROPN1 and ROPN1B] | 0.852 relative to YLE | 3.16 µM | 1.37 fold change over baseline | 2180 geometric mean normalized to baseline | 2.84 µM | 1.26 fold change over baseline |  |
| KTLKIVCEV (Synthetic peptide) [Epitope 3 peptide KTLKIVCEV of ROPN1 and ROPN1B] | 0.844 relative to YLE | 4.35 µM | 1.18 fold change over baseline | 2620 geometric mean normalized to baseline | 4.4 µM | 1.26 fold change over baseline |  |
| SALGVTITK (ROPN1A and ROPN1B, eluted) |  |  |  |  |  | 0.92 fold change over baseline | binding result [10]: no binding |
| LPRIPFSTF (ROPN1B, eluted) | 0.38 relative to YLE |  |  |  |  | 1.14 fold change over baseline | EC50 [12]: 0.0664 µM |
